Each block holds one binder with its values, some of them ahead of it.
Assays:
[1] = molecular target: T1, DnaK nucleotide-binding domain NBD^1–392 T199A (E. coli, UniProt P0A6Y8 1-392, T199A); assay: NMR titration; HMQC spectra of 2H, 13C-methyl ILV labelled protein, 25 °C; nucleotide free; 40 μM NBD^1–392 T199A plus 40 μM GrpE or truncated variants, or 60 μM DnaK plus 80 μM GrpE or truncated variants; conditions: both partners purified
T1 construct: Nucleotide free unless specified; Used unlabelled in SPR and 2H-15N labelled or 2H, ILV 13C-methyl labelled in NMR; also called DnaK NBD; wildtype NBD

[2] = molecular target: T2, Wildtype E. coli full-length DnaK (E. coli, UniProt P0A6Y8 1-638); assay: as above; conditions: both partners purified
T2 construct: Escherichia coli Hsp70 DnaK, wildtype, full length; 2H, ILV 13C-methyl labelled and nucleotide free in the NMR experiments

[3] = molecular target: T1, DnaK nucleotide-binding domain …; assay: SPR; Biacore T-200, NTA sensor chip activated with Ni2+; N-terminal His-tagged GrpE immobilised; nucleotide-free NBD^1–392 T199A or its variants perfused at diverse concentrations; control without GrpE subtracted; equilibrium and kinetic fits; conditions: both partners purified
DnaK NBD^1–392 Q260R = DnaK NBD^1–392 Q260R (E. coli, UniProt P0A6Y8 1-392, T199A | Q260R); assay: as above; conditions: both partners purified
[4] = molecular target: DnaK NBD^1–392 Δ285 to 295 (E. coli, UniProt P0A6Y8 1-392, T199A | Δ285 to 295); assay: as above; conditions: both partners purified
DnaK NBD^1–392 Y285R = DnaK NBD^1–392 Y285R (E. coli, UniProt P0A6Y8 1-392, T199A | Y285R); assay: as above; conditions: both partners purified
[5] = molecular target: T2, Wildtype E. coli full-length DnaK; assay: not stated; data not shown; nucleotide-free DnaK/GrpE

binding result [1]: binds
binding result [2]: binds
B1: GrpE^69–197 (domain or fragment, E. coli, UniProt P09372 69-197, looked up)
chain: MENLRRRTELDIEKAHKFALEKFINELLPVIDSLDRALEVADKANPDMSAMVEGIELTLKSMLDVVRKFGVEVIAETNVPLDPNVHQAIAMVESDDVAPGNVLGIMQKGYTLNGRTIRAAMVTVAKAKA
notes: lacks the N-terminal disordered tail and a portion of the coiled-coil domain; 2H-labelled for the 1H-15N HSQC experiments; also called truncated GrpE variant; source: E. coli BL21(DE3), purified (Ni-NTA, TEV cleavage, second Ni-NTA)

Kd [3]: 3.8 ± 0.6 nM
koff [3]: 0.021 s⁻¹
kon [3]: 5.9e+06 M⁻¹ s⁻¹
Kd (DnaK NBD^1–392 Q260R): 4.1 ± 0.3 nM
koff (DnaK NBD^1–392 Q260R): 0.0231 s⁻¹
kon (DnaK NBD^1–392 Q260R): 5.6e+06 M⁻¹ s⁻¹
Kd [4]: 440 ± 60 nM
koff [4]: 0.0158 s⁻¹
kon [4]: 39000 M⁻¹ s⁻¹
Kd (DnaK NBD^1–392 Y285R): 120 ± 10 nM
koff (DnaK NBD^1–392 Y285R): 0.0178 s⁻¹
kon (DnaK NBD^1–392 Y285R): 24000 M⁻¹ s⁻¹
B2: N-terminal His-tagged GrpE (natural protein, E. coli, UniProt P09372 1-197, looked up)
chain: MSSKEQKTPEGQAPEEIIMDQHEEIEAVEPEASAEQVDPRDEKVANLEAQLAEAQTRERDGILRVKAEMENLRRRTELDIEKAHKFALEKFINELLPVIDSLDRALEVADKANPDMSAMVEGIELTLKSMLDVVRKFGVEVIAETNVPLDPNVHQAIAMVESDDVAPGNVLGIMQKGYTLNGRTIRAAMVTVAKAKA
notes: Held on the Ni-NTA sensor chip by its His tag in SPR; source: E. coli BL21(DE3), purified (Ni-NTA); not shown: His tag, N-terminal, kept

Kd [5]: 3 nM
B3: GrpE, full-length wildtype, His tag cleaved (natural protein, E. coli, UniProt P09372 1-197, looked up)
chain: B2 chain
notes: Escherichia coli GrpE, nucleotide-exchange factor of DnaK, wildtype, full length; also called full-length GrpE; wildtype GrpE; source: E. coli BL21(DE3), purified (Ni-NTA, TEV cleavage, second Ni-NTA); not shown: His tag, N-terminal, cleaved

— publication PMC10825016, “New insights into the structure and function of the complex between the Escherichia coli Hsp70, DnaK, and its nucleotide-exchange factor, GrpE” (The Journal of Biological Chemistry, 2023)
